Data on five molecules can be found in patent US20080207498A1, “Methods for Treating Alzheimer's Disease” (priority 2005, published 2008).

No end group written: not given here.

Experiment [1] deals with Preformed immune complex of peroxidase and rabbit anti-peroxidase IgG (PAP complex) (horseradish) (UniProt P00433). The experiment is described as follows: competition reverse ELISA: PAP pre-incubated with peptide, residual PAP binding to FcγIII-coated plate.
For experiment [2] the target is unchanged. The experiment in a line: competition reverse ELISA: PAP pre-incubated with peptide, residual PAP binding to FcγIIb-coated plate. (An ELISA detects its analyte on a solid surface through an enzyme-linked reagent.)
Experiment [3] shares this target. The experiment in a line: competition reverse ELISA: PAP pre-incubated with peptide, residual PAP binding to C1q-coated plate.
For experiment [4] the target is unchanged. The experiment in a line: competition reverse ELISA: PAP pre-incubated with peptide, residual PAP binding to FcγIIa-coated plate.
For experiment [5] the target is unchanged. The experiment is described as follows: competition reverse ELISA: PAP pre-incubated with peptide, residual PAP binding to plate coated with human wt tau.
Experiment [6] has the same target. The experiment is described as follows: competition reverse ELISA: PAP pre-incubated with peptide, residual PAP binding to plate coated with human wt β amyloid peptide 1-40.

Sequence of Preformed immune complex of peroxidase and rabbit anti-peroxidase IgG (PAP complex) (horseradish) (P00433 31-338, one chain of several): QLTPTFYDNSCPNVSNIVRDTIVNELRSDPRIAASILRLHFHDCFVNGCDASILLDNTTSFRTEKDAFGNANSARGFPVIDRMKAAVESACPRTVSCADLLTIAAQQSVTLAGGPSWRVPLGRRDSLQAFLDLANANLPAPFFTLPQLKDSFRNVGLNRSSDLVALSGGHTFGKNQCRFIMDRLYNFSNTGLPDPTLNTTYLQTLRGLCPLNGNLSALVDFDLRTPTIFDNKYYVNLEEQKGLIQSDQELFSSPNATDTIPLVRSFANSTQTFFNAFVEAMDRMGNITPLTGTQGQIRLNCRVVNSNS

Regarding APPCAWHLGELVWCT (not fully specified; cysteine pairing not given here) [Peptide … (SEQ ID NO:13)], the OD 405 nm came to 0.53 OD in experiment [1], 0.562 OD in experiment [2], 1.15 OD in experiment [3] and 0.658 OD in experiment [4].
On the same counts, the results for DCAFHLGELVWCT [Peptide … (SEQ ID NO:3)] are 0.81 OD, 0.51 OD, 0.859 OD and 0.66 OD.
As for APPDCAWHLGELVWCT [Peptide … (SEQ ID NO:16)], the OD 405 nm in experiment [1] is 0.67 OD; in experiment [5], 0.059 OD; in experiment [2] it was 0.496 OD; in experiment [3] it was 0.389 OD; in experiment [4], 0.509 OD; in experiment [6], 0.885 OD.
Regarding APPCAFHLGELVWCT (not fully specified; cysteine pairing not given here) [Peptide … (SEQ ID NO:15)], the OD 405 nm came out at 0.88 OD in experiment [1], 0.38 OD in experiment [2], 0.983 OD in experiment [3] and 0.605 OD in experiment [4].
The matching figures for APPCARHLGELVWCT (not fully specified; cysteine pairing not given here) [Peptide … (SEQ ID NO:14)]: 0.709 OD, 0.768 OD, 0.567 OD and 0.956 OD.
